# Values of other authors, collected in publication PMC4664829.
# Where two headings read alike, the source gives them in different places.
# How the values were obtained:
# Glu14 [1] = biological target: T1, Glu14 (UniProt position 14, GAILAEVIGTT); details: proton release from EmrE
# Glu14 [2] = biological target: T1, Glu14; test: kinetics; details: TPP+ association with substrate-free EmrE
substance,measurement,setting,value
EmrE (small multidrug resistance transporter) (Escherichia coli),pKa,Glu14 [1],8.4
same,pKa,Glu14 [2],7.3
